# Experimental data taken from paper PMC8457657.
# Target: pseudotyped SARS-CoV-2 (spike on lentivirus), active (SARS-CoV-2) (UniProt P0DTC2)
# Assay: ELONA
# Settings: pH 7.2, pH 7.4, room temperature ([…], MST 10 min)
sequence,measurement,value
CCCGACCAGCCACCATCAGCAACTCTTCCGCGTCCATCCCTGCTG [SARS2-AR10],Kd,79 nM
